According to the domain aggregation screens of Martell et al. (2025):

assay: soluble fraction after stress (log2 fold change); higher = more stays soluble; pooled small domains, quantitative proteomics; conditions: stress: pH 4
Outline: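 Custom libraries of small protein domains were pooled and exposed to pH 4. High-throughput quantitative proteomics then measured the log2 fold change in the amount of each domain still soluble, with higher values meaning more stayed soluble. This soluble-fraction fold change stands for aggregation propensity.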

| Sequence | soluble fraction (log2) |
| --- | --- |
| HMSLQDYYQVLGVFYNAGDKEIKRRWKELINQYHPDLAQAKGASPEEIENYTLKMAEINNAYEQIMKSRKA | 0.0253 |
| HMSGHIPGIKIKGVIFFDKGSSSNHIIATTENNSNLKLRVGETVQGAVLKSIHPNHVIFFHHNQLIEVGIG | 0.0374 |
| HMNMMESNLFAVYDNDDIVKTLRQGAMEIDSLIRLMGKSSAEVLEKLTTMELQGIITRSGNIIALNN | -1.38 |
| HMIMNLNVLANNVRRLRTAQRLSQSALASKAGLSVPAIKNLENARNEPRVNTVQVIAHALEVRLQDLFAPT | 0.18 |
| HMTVEVFQSLVQTFREMSPRKAASILEELKRDLAVEILLHMPEDGVAAILARMDPARAARLTEQLALEKD | -0.867 |
| HMIPEGKWMEDPISEGQIKFIETLIKQAIDSGQDALGAEAKQYLSSGEATKGNASSMIDKLKDAL | -0.479 |
| HMTDLDVAVTMTVALEEAVNGATRRVRLPNGKELNVKIPAGVAAGQQIRLKGQGETAPGHRPGDVLITVNI | -0.626 |
| HMATYNEVLKRLIEERKRLGLSQQEMARLVHITQSNYSKVEKGLHRLSYEELKYLSKANVDIFYILT | 0.0845 |
| HMAREQISVSQMVRDVRDGQVKNIEVLGQELRLSYADGSQKVTRKEEGQQALEILFASDIDLAALDLEVQ | -1.16 |
| HMPELSNNLDRDKVALKNFNESLKDGLTPAEAYANHLTNVSKAAQEAARQSNGLPVDIDKYHNSQLAASMA | ≥ 0.43 |
| HMIKIEDILNVESVELSDSEYKKFLNGILINVKNLENGWAKVYSGNEFKGFGIVDKNLLKRKIVID | -0.407 |
| HMATLAVPNLMRLSQGEAMALIRLSGLSIGNVSIDSSMGSPRVIRQEPQASGGMLVLTQGDQVHLWLEGP | -2.08 |
| HMDFSSRLKDERKRLKLSQAQLGEAGGVSKDAQLNYENGSRSPSASYLELIAREGVDVQFLLTGKRS | -0.0636 |
| HMATIIGSIGIVTQKVGLTGVPGRVYVNNESWAAISANGKEIENDTQVIVVKIDGATLIIEKKG | -0.262 |
| HMSVERIEPPLPLIDTLLALRDALERPLSREENAFLSRRFAGGATRAQIDALAAQFRGAAAAESKV | -0.324 |
| HMAEEFESMTEARRLELARLVDSRGFVRVTDAAEELGVSDVTIRGDLSELERRGLLTRVHGGAMPVT | -0.366 |
| HMRMETRILTADESGIRLDAFLASRLAVSRSLAASLIDDGNVTLNGTVPKKKTAVNVGDILEVAMP | 0.22 |
| HMKILNYQSLVGKKGITKSMLRPAGIVEIEGRRYDVVTRGEFIEPGKMITVDEVQGNRIIVQIERE | 0.189 |
| HMLDLSEEEQKIVSILEKQGNLQINSLVVEADIPVHKINAILFELEMKGVVRVLALSLIHISEP | -0.628 |
| HMVVANTAIKSELQNIVANENKQAPLSDQKIVDQLKQAGFDISRRTVVKYRDALGIPTSRNRKR | 0.112 |
| HMGHRQRRARARNRSMLEDIPGLGPKRRQQLLRQFGGLPQLMRAGVAELSQVPGISDSLARKIHAELHPES | -1.87 |
| HMSQAVTMLKAGRLLANSKGTGAAVRDLEPGMLLYPTGQKDGTMWEVEDEMGNKGWVNSTSMQLA | 0.395 |
| HMHMSKKLADSISALRKKNGLSQEQLAEKIGISRQTVSNWERGIATPDVETLNLISKLFDEDLSVMING | 0.043 |
| HMPEIFYRKIHRTDHDQIALDAEMIRLLIAIDEKKSLSQIAAEVQMEPMALKKNLGKLIQLGLVEPIK | -0.179 |
| HMNRYPIQTEVHAFNDDIIKEAINFEMSRGGQIFFVNNRIPQLYELENTIHRLVPDARVVIGHGQMP | -0.722 |
| HMLTLDEKRRLQIMRVQVALTSLGLYNGRVDGVLNAETKLGLEFFQDLKGLPKSGTMTTPTLNALGVPA | -0.347 |
| HMGPTLTDEEEVVLNLLEKNHPVLLSELKENAGLSNKKWDKAIKGLSAHKLAKVTKTDDGLFVHLS | -0.167 |
| HMTTKYVAVHESKDGYWTIASKPSSKEDAEAMLGGTPKNEVGKVVTLEEAKAHKKTLGEEYLYE | ≥ 0.43 |

| Sequence | soluble fraction (log2) |
| --- | --- |
| HMFIPGDSVRVHVKVVEGSNERIQMFEGVVIARQGSGVRENFTVRRISYGVGIERTFPVHSPRL | -0.62 |
| HMIYQNVINLLKNRLNSSIYNIGDLLPSEKELAEHYDVSRNTLRKALKTLEEEGMIERRHGSGTYLRNK | 0.0262 |
| HMTAIKAGDLVKITGTKYYGGQTIPGWVKNQNWYVQEVSGDRAVINKNESGTNAIMSPIRVSDLTPVS | -0.0468 |
| HMMESLGIRLKRLRKDKGLTQVELGKLSGVTGVTIGYWEKDLNEPGSKALSKLAQALGTTESYLLYGVS | 0.22 |
| HMHVSLADQAYKTIRTNILNLTYPPGTQLTEAKLASDLNMSRSPVRTAIKMLQADGLLVSDYYKSMTVK | ≥ 0.43 |
| HMAQIVNLPRKNVNGASYYYYEVQPKETIYSISRKLGVSGAEIQRHNPSVADGLKIGQVLYFPAEG | -0.0603 |
| HMDIHSEEYILGQNIRKYRLRLGWSQADLSNAVDIDRADISKYENGAKGIMSSTLLRKFAKALGVSMDALM | 0.0187 |
| HMITERVPVPDLTGMPLMEAIKTLNSSKLQYQVVGSVIEGDENRIIDQTPKPDIMVSEKSIVLLYLETYRG | -0.338 |
| HMSSNLTVFTRNNAIIVNSDVVRKLNVFAVDGRLVRSVDLSVGENVINNISRGMYLIDKQKVVV | ≥ 0.43 |
| HMITLKKRRQEAILEIIEKYDLSTQDELLQKLKDSGFDATQATVSRDIKELRLVKTMGANGQYKYAVT | -0.735 |
| HMAENMNAALRVSSLINQIGTVNAKAKDRIESARKAYDALSEAQKAYVANLTTLETAETSLSKL | 0.146 |
| HMTLTEQQITDNYKELRKIINDTFSGLRLDKLNHMYDDLEDRMVVAPASSVEHYHNSKVGGYVEHILHVI | -0.132 |
| HMPMDDETWDALSLFAYKRYARENGWPLMIGAEALRDTFASYFPLDSSTWQDRSSHYLTYQDGIYTRT | -0.753 |
| HMGPSLIRIASNPVAEVFIDGTRVGTTPFEMPADGTLKTVRLTAKDHDDLVVPLRSMKSMEIMLTLRRI | -0.136 |
| HMSGAKLLAPVTGTLLRYTVAEGTKVSEGQTVIMLESMKMELEINAHKAGVIHFTAAAGAQVAEGDSLAEI | -0.419 |
| HMTEYFTIESQEGERIDRYLSEELEDKSRSYIQKLIRDGHVLVDGKTVKAGYRLVAGDNIAITLPEI | -0.133 |
| HMVREVGYNAFLAMLDSGAVKEVARDESEGQITFLATDEKGKERVYKTGIWPDDTLTERLNTAGVEFA | -0.941 |
| HMKREWKDDDPTVPAGWKVAWTTTSDNRAKIAFMSPDKKIFHSRKSALQHMLAAGTYAQSDIEKMTKGL | 0.377 |
| HMFETLVLALAQAWPAERGPVEALQFEGGRLSLQRSGFADEQVEALRQRLSSEGWTLQTEQGRLILNKAG | -1.11 |
| HMSIESMVGRFGVVTKDVVANEMAGKVKVGREEFRATADIAVSSGTKVKVTHAEGITLTVVPE | 0.0258 |
| HMGNKWKPIILYLLSNGSMRFGMLNALIPTISKKVLTNQLKELENDGLLLRQSFAEIPPRVEYSLTEKA | 0.165 |
| HMPAKIIKKSFVYNPIHRDTEYLAQFLQGEGQVSASGDKLVYYGTVEDISRIKSVLQSVDTPS | -0.434 |
| HMPGRKKLAIIYKNDYIGAFNLADSYRDSYEVSMYAFPKKVGKLLNRLELQGFNAYVIYDKDNEENNFNTI | 0.00545 |
| HMEYKTGIINTNKVRVRNAADADATVIFAINKDIKVKILAEENGFYKIGVSVKNRGNGEDLIGFVKKELIT | 0.3 |
| HMITASNYFIEVERIGIETLPETLKKGHDLVVKSTSNGTNWANYQTSEGIKKVIDLYFQKLNEYANTV | -1.57 |
| HMDVLSPEEWIEFRTAYNNNRYISQYGSKGATIEDDYATRLAMIGGKESYYFLNDPRWTEPGYGNLK | -1.45 |
| HMTQSGLTQWEFNMLRQALIEMLGEKPGSVFELARLLPLEQEKNVQALRFLLDHDDQFHLKDEYISFVKRT | -1.82 |
